According to the nanobody polyreactivity screen of Harvey et al. (2022):

Assay: yeast display, Sf9 membrane polyspecificity reagent, FACS + sequencing; frameworks hold sequencing errors
Outline: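 Polyreactivity labels are assigned by the sorting gate from which each nanobody was recovered. The gates were low and high (top ~1%), set on anti-HA fluorescence for expression and streptavidin fluorescence for reagent binding. Before sorting, galactose-induced (36–48 hours) yeast display cells were stained for 1 hour at 4 °C with 10% biotinylated, detergent-solubilized Sf9 membrane reagent.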

| Sequence | polyreactivity (PSR sort gate) |
| --- | --- |
| QVQLIESGGGLVQAGGSHRLSCAASGRIFAYYAMGWYRQAPGKERELVAGISQRGSRTYYADSVKGRFTISRDNAKNTVYLQMNSLKPEDTAVYYCAARDRRSVTMDYWGQGTQVTVSS | high polyreactivity |
| QVQLVESARGLVQAGGSLRLSCAASGYTIRANAMGWYRQAPGKEREFVAAISRSGGSTYYADSVKGRFTISRDNAKNTVYLQMNCLKPEDTAVYYCNNLYPYYATHTTRGLDYWGQGTQVTVSS | high polyreactivity |
| QVQLVESGGGLVQAGGSLRLICAASGRIFRYNAMGWYRQAPGKERELVAAISSVGSTNYADSVKGRFTISRDNAKNTVYLQMNSLKPEDTAVYYCNAVVRSYVKTYRYYKVDYWGQGTQVTVSS | high polyreactivity |
| QVQLVESGGGLLQAGGSLRLSCAASGFIFKYYAMGWYRQAPGKEREFVAGINWSGTSTYYADSVKGRFTISRDNAKNTVYLQMNSLKPEDTAVYYCAATAYRGRTSRYYYWGQGTQVTVSS | high polyreactivity |
| QVQLVESGGGLVQAGGSLRLSCAASGSTFAWNAMGWDRQAPGKERELVAAISKSGGSTYYADSVKGRFTISRDNAKNTVYLQMNSLKPEDTAVYYCAASGTVYARVRYYYWGQGTQVTVSS | high polyreactivity |
| QVQLVDSGGVLVQAGGSLSLSCAASGITFPINAMGWYRQAPGKEREFVATISFSGASTYYADSVKGRFTISRDNAKNSVYLQMNSLKREDTAVYYCAARWKPPYWGRYYYWGQGTQVTVSS | high polyreactivity |
| QVQLVESGGGLVQAGGSLRLSCAASGSIFADNGMGWYRQAPGKERELVAAINSGSTYADSVKGRFTISRDNAKNTVYLQMNSLKPEDTAVYYCNADGVTSGRVDYWGQGTQVTVSS | low polyreactivity |
| QVQVVESGGGLVQAGGSLRLSCAASGRIFSHNAMGWYRQAPGNEWELVAGISSGGGTTYADSVKGRFTLSRDNAKNTVYLQMNSLKPEDTAVYYCNKQDQPVGRSGYPYGYDYWGQGTQVTVSS | low polyreactivity |
| QVQLVESGGGLVQAGGSLSLSCAASGNIFTIYAMGWYRKAPGKERELVARITWGGGNTYYADSVKGRFTISRDNAKNTVYLQMNSLKPEDSAVYYCNAVGPYDYRYGKYDYWGLGTQVTVSS | low polyreactivity |
| QVQLVESGGGLVQAGGSLRLSCAASGIIFRLYAMGWYRQAPGKERELVAAISSGGSTYADSVKGRFTISRDNAKNTVYFQMNSLKPEDTAVYYCAAGRVWHLYWYNYWGQGTQVTVSS | high polyreactivity |
| QVQLVESGGGLVQAGGSLRLSCAASGSIFSTNAMGWYRQAPGKERELVAGISSDDSTYADSVKGRFTISRDNAKNTVYLQMNSLKQADTAVYYCAAEDNWYNVGYYYWGQGTQVTVSS | low polyreactivity |
| QVQLVESGGGLVQAGGSLRLTCAASGRIFGSYAMGWYRQAPGKERELVAAITRRGGSTYYADSVKGRFTISRDNAKNTVYLQMNSLKPEDTAVYYCAPERTSAYDYWGQGTQVTVSS | high polyreactivity |
| QVQLVESGGGLVQAGGSLRLSCAASGRTFWYNAMGWYRQAPGKERELVAAITSSGGSTYYADSVKGRFTISRDNAKNTVYLQMNSLKPEDTAVYYCNKRPGPYKWPPRHDYWGQGTQVTVSS | low polyreactivity |
| QVQLVESGRGIVQAGGSLRLSCAASGLSFSNYAMGWYRQAPGKERELVARITTSGGRTYYADSVKGRFTISRDNANNTEYLKMNSLKPEDTAVYYCAANNRRRPSYDYDSWGQGTQVTVSS | low polyreactivity |
| QVKLVESGGGLVQAGGSLRLSCAASGSIFLSYAMGWYRQAPGKDRELVAAISGGGGSTYYADSVKGRFTISRDNAKNTVYLQMNSLKPEDTAVYYCAADYYYGDALSPYYPHWDFYYWGQGTQVTVSS | low polyreactivity |
| HVQLVESGGGLVQEGGSLRLSCAASGSILNQNAMGWYRQARGKERELVASISWDGDRTYYADSVKGRFTISRDNAKNTVYLQMNSLKPEDTAVYYCAASFYGIDRMGYWGQGTQVTVSS | low polyreactivity |
| QVKLVESGGCLVKAGGSLRLSCAATGRIFLYYAMGWYRQAPGKEMELVATITSGGRTNYADSVKGRFTISRDNAKNTVYLQMNSLKPVDTAVYNCARQSYGSYRRYGFSALYGYLGQGTQVTVSS | high polyreactivity |
| QVQLVETGGGIVQAVGSLRLSCAASGSTFGWNAMGWNRQAPGKERELVAVISSDGRTYYADSVKGRFTISRDNAKNTVYLQMISLKPEDTAVYYCAKRAWGFGGYDYWGQGTQVTVSS | low polyreactivity |
| QVQLVESGGGLVQAGGSLRLSCAASGRIFRYYAMGWYRQAPGKEREFVAAISSNTGTGTYYADSVKGRFTISRDNAKNTVYLQMNSLKPEDTAVYYCNAKYKYRGYYWGQGTQVTVSS | high polyreactivity |
| QVQLVESGAGLVQAGGSLRLSCAASGTIFRDYAMGWYRQAPGKERELVAAISSDGSTYYADSVKGRFTISRDNAKNTVYLEMNSLKPEDTAAYYCNARSYYPWEGFDYWGQGTQVTVSS | low polyreactivity |
| QVQLVESGGGLVQAGGSLRLICAASGITLYRYAMGWYRQAPGKERELVADISSGGGTTYYADSVKGRFTISRDNAKNTVYLQMNSLKPEDTAVYYCAADYGFRYPLYDYWGQGTQVTVSS | low polyreactivity |
| QVQLVESGGGLVQAGGSLRLSCAASGLIFTYYAMGWYRQAPGKERELVAAISSSGVNTYYADSVKGRFTISRDNAKNTVYLQMNSLKPEDTAVYYCAAELQPSPVGGIIQYGFDYWGQGTPVTVSS | low polyreactivity |

| Sequence | polyreactivity (PSR sort gate) |
| --- | --- |
| QVQLVESGGGLVQAGGSLRLSCAASGLTFIHYAMGWYRQAPGKEREFVAAISTNSGSTYYADSVKGRFTISRDNAKNTVYLQMNSLKPEDTAVYYCAARGLRWRIDGEYWGQGTQVTVSS | high polyreactivity |
| QVQLVESGGGLVQAGGSLRLSCAASGFIIDRNAMGWSRPAPGKERELVAAITWSTTSTYYADSVKGRFTISRDNAKNTVYLQMNSLKPEDTAVYYCAADITSPAYATYDYWGQGTQVTVSS | low polyreactivity |
| QVQLVESGGRLVQAGGSLRLSCAASGRIIAYNAKGWYRQAPGKERELVDAISRSGGSTYYADSVKGRFTISRDNAKNTVYLQMNSLKPEDTAVYYCAASLKVPYATMNYWGQGTQVTVSS | high polyreactivity |
| QVQLVESGGGLVQAGGSLRLSCAASGSIFQYNAMGWYRQAPGTERELVAAITWTGTSTYADSVKGRFTISRDNAKNTVYLQMNSLKPEDTAVYYCAARYYAPRWFRYDYWGQGTQVTVSS | low polyreactivity |
| QVQLVEAGGGLVQAGGSLRLSCAASGPIFPLYAKGWYRQAPGKERELVAAISSGGTTYYADSVKGRFTISRDNAKNTVYLQMNSLKQEDTAVYYCARRPAQRLGRFDYWGQGTQVTVSS | low polyreactivity |
| QVQLVESGGGLVQAGGSLRLSCAASGNTFEYYAMGWYRQAPGKERELVAAITSGGSTNYADSVKGRFTISRDNAKNTVYYQMNSLKPEDTAVYYCAADQWGYEYDYWGQGTQVTVSS | low polyreactivity |
| QVQLVESGGGLVQAGCSLRLSCAASGRTFNYYAMGWYRQAPGKERELVAAISVSGVRTYYADSVKGRFTISRDNAKNSVYLQMNSLKPEDTAVYYCAGLYQSVRGYVYWGQGTQVTVSS | high polyreactivity |
| QVQLVESGGGLVQAGGSLRLSCAASGRNFKQYAMGWYRQAPGKERELVAVITRGGGSTYYADSVKGRFTISRDNAKNTVYLQMNSLKPEDTAVYYCAARGTQAPPGRRTGGYNSWGQGTQVTVSS | high polyreactivity |
| QVQLVESGGGLVQAGGSLRLSCAASGFTFYYYAMGWYRQAPGKERELVAAISISGASTYYADSVKGRFTISRDNAKNTVYLQMNSLKPEETAVDYCAKRTKGYTYHHEYGYWGQGTQVTVSS | low polyreactivity |
| QVQLVESGGGLVQAGGSLRLSCAASGLTFGRNAMGWYRQAPGKERELVAAIRWSGGSTYYADSVKGRFTISRDNAKNTVYLQMNSLKPEDTAVYYCAATRVLRPVGTHYYYWGQGTQVTVSS | high polyreactivity |
| QVQLVESGGGLVQAGGSLRLSCAASGSIIDLYAMGWYRQAPGKERELVAAISFSGGSTYYADSVKGRFTISRDNAKNTVYLQMNSLKPEDTAVYYCAKDVRRTLRFRAFDYWGQGTQVSVSS | low polyreactivity |
| QVQLVESGGGLVQAGGSLRLSCAASGRIFRYNAMGWYRQAPGKERELVADISKRGGSTYYADSVKGRFTISRDNAKNTVYLQMNSLKPEDTAVYYCNARNTYYVVANDYWGQGTQVTVSS | high polyreactivity |
| QVQLVESGGGLVQAGGSLRLSCAASGGIFDIYAMGWYRQAPGKERELVAANRGSGGRTYYADSVKGRFTISRDNAKNTVYLQMNSLKPEDTAVYYCAARPSIVTGLRYGYWGQGTQVTVSS | high polyreactivity |
| QVHLVESGGGIVQAGGSLRLSCAASGSTFGYYAMGWYRQAPGKERELVAAITTRGTRTYADSVKGRFTISRDNAKNTVYLQMNSLKPEDTAVYYCNAYEWGDFVLYTTDYDYWGQGTHVTVSS | high polyreactivity |
| QVQLVESGGGLVQAGGSLRLSCAASGRTFASNDMGWYRQAPGKERELVADINNGARTYYADSVKGRFTISRDNAKNTVYLQMNSLKPEDTAVYYCNTRSGFYLGDFDYWGQGTQVTVSS | high polyreactivity |
| QVQLVESGGGLVQAGGSLRLSCAASGRIFGVYVMGWYRQAPGKERELVAAISWSGSHTYYADSVKGRFTISRDNAKNTVYLQMNSLKPEDTAVYYCNADSYPDYTGPGLDWYDYWGQGTQVTVSS | low polyreactivity |
| QVQLVEAGGGLVQAGGSLRLSCAASGRTFSFNAMGCYRQAPGKERELVAAISRRGTSTYYADSVKGRFTISRDNAKNSVYLQMNSLKPEYTAVYYCAARSTYTRREYDYWGQGTQVTVSS | high polyreactivity |
| QVQLVESGGGLVQAGGSLRLSCAASGSIFPFYAMGWYRQAPGKERELVAVISTRGGSTYYADSVKGRFTISRDYAKNTVYFQMKSLKPEDTAVYYCAAKSVYRMGYWGQGTQVTVSS | high polyreactivity |
| QVQLVESGGGLVQAGGSLRLSCAASGSTFYPNAMGWYRQAPGKERELVAAISRGTRTKYADSVKGRFTISRDNAKNTVYLQMNSLKPEDTAVYYCAKRYYGSPQLRYYYWGQGTQVTVSS | high polyreactivity |
| QVQLVESGGGLVQAGGSLRFICAASGFSLYHYAMGWYRQAPGKERELVAAITTSGSRTYYADSVKGRFTISRDTAKITVYLQMNSLKPEDTAVYYCNAVASSTEYDYWGQGTQVTVSS | high polyreactivity |
| QVQLVESGGGLVQAGGSLRLSCAASGFIFPTYAMGWYRQAPGKERELVATITTNAGGTYYADSVKGRFTISRDNAKNTVYLQMNSLKPEDTAVYYCAHDYDGYVWDTEYDYWGQGTQVTVSS | low polyreactivity |
